Experimental data published in the supplement of paper PMC9732359.
± gives the uncertainty stated by the source.

Assay: protein stability index of a GFP-peptide fusion (yeast GPS) (PSI 1-4); higher = more stable; sorted into four equal gates, so the index is relative within each strain
Outline: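 Mid-log yeast cultures in leucine-free medium, carrying a pooled plasmid library, were sorted into four equal gates by their GFP/Cherry fluorescence ratio. Each plasmid expressed Cherry along with GFP fused upstream of a tiled 17-residue yeast protein peptide. Plasmids recovered from each gate were PCR-amplified and Illumina-sequenced, with reads assigned to strains by barcodes. The protein stability index was obtained by summing each gate's read frequency weighted by its gate number.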

Row | Sequence | protein stability index (doa10∆) | protein stability index (pdr5∆) | protein stability index (san1∆) | protein stability index (ubr1∆)
1 | PGVNREINSEMCHIVRK [GRR1] | 3.01 ± 0.096 | 3.05 ± 0.082 | 3.35 ± 0.059 | 3.12 ± 0.052
2 | LHVPNLQPPKTSSRGRD [SMC4] | 2.44 ± 0.044 | 2.52 ± 0.043 | 2.29 ± 0.054 | 2.18 ± 0.039
3 | HLLIKIIRQLSELNEGN [SRB8] | 2.8 ± 0.097 | 2.77 ± 0.089 | 3.18 ± 0.052 | 1.97 ± 0.053
4 | KITTSTEDQKVTTNINW [SRP68] | 3.13 ± 0.078 | 3.13 ± 0.072 | 3.21 ± 0.068 | 3.11 ± 0.054
5 | LWPVAIGLIALSATGTR [YJR042W/NUP85] | 1.75 ± 0.25 | – | 1.36 ± 0.23 | –
6 | AKYETSILEHSGIRLIE [FAS2] | 3.32 ± 0.062 | 3.3 ± 0.063 | 3.09 ± 0.051 | 3.37 ± 0.052
7 | AMEKYLLSKSKIGEEDY [MTW1] | 2.35 ± 0.085 | 2.73 ± 0.083 | 2.6 ± 0.1 | 2.73 ± 0.042
8 | NEYVIKTPVFTTGGDYI [YMR129W/POM152] | 1.88 ± 0.062 | 2.07 ± 0.053 | 1.91 ± 0.075 | 1.99 ± 0.053
9 | EDEVKVEGPKFTIDAKP [YLR335W/NUP2] | 3.54 ± 0.15 | 3.52 ± 0.2 | 3.45 ± 0.071 | –
10 | ESCEDILDLKEFDRRIL [RTT102] | 2.78 ± 0.16 | 3.37 ± 0.16 | 3.23 ± 0.072 | 3.07 ± 0.092
11 | NLKFLKNKDSLVSNPHE [SRB4] | 2.68 ± 0.06 | 2.51 ± 0.076 | 2.49 ± 0.05 | 2.84 ± 0.049
12 | REIVMPAHTKYMLIEEA [ITC1] | 3.2 ± 0.1 | 3.42 ± 0.1 | 3.03 ± 0.071 | 3.31 ± 0.13
13 | IFNFDQLVEITEQIKMR [SRB8] | 1.59 ± 0.1 | 1.6 ± 0.082 | 1.66 ± 0.14 | 1.48 ± 0.057
14 | DRIYMLFHFEEDEGEEL [PRP8] | 1.64 ± 0.065 | 1.49 ± 0.064 | 1.5 ± 0.17 | 1.93 ± 0.057
15 | YIWRYLPAPPVCIRPSV [RPO31] | 1.48 ± 0.14 | 1.27 ± 0.1 | – | 1.2 ± 0.23
16 | LVFQLAKNFSAQKRVVS [SRB8] | 1.69 ± 0.053 | 2.06 ± 0.072 | 1.86 ± 0.076 | 1.94 ± 0.058
17 | RMSIKLLRLASKSTSMK [POP1] | 2.49 ± 0.043 | 2.6 ± 0.047 | 2.48 ± 0.053 | 2.56 ± 0.04
18 | LNDENSDDYDNEGAASS [SMC1] | 3.39 ± 0.25 | – | – | –
19 | KKTATEPKQKANAVQNN [SRP21] | 3.06 ± 0.086 | 3.19 ± 0.082 | – | 3.24 ± 0.12
20 | TSRIDEEKPGLIITRKA [SMC4] | 2.91 ± 0.063 | 3.07 ± 0.052 | 3.07 ± 0.044 | 3 ± 0.057
21 | YLIDHIKVEGAVGNLGN [RPL22A] | 2.9 ± 0.17 | 3.11 ± 0.16 | 2.89 ± 0.092 | 3.21 ± 0.11
22 | NLPKEGDIVLTRVTRLS [CSL4] | 2.58 ± 0.13 | – | 2.48 ± 0.26 | –
23 | ILEFITAAQVANVELTP [RPC34] | 2.68 ± 0.12 | 2.13 ± 0.08 | 2.27 ± 0.095 | 1.53 ± 0.095
24 | NLVVSGPPQSLYGLNLT [FAS1] | 2.69 ± 0.071 | 2.35 ± 0.059 | 2.51 ± 0.075 | 2.45 ± 0.043
25 | SQTTTNDSKEESTTEAT [YLR335W/NUP2] | 3.02 ± 0.19 | 2.83 ± 0.21 | 2.97 ± 0.21 | 3.27 ± 0.079
26 | FTQLKKNIPKTRYNRDY [SNU114] | 2.48 ± 0.052 | 2.59 ± 0.056 | 2.98 ± 0.04 | 2.79 ± 0.051
27 | DHRKRKKSKIQLLDIAE [LIN1] | – | 2.8 ± 0.23 | 3.19 ± 0.17 | 3.32 ± 0.18
28 | CDQTKSVPLMINAKNIA [RRP43] | 1.74 ± 0.061 | 2.21 ± 0.078 | 1.53 ± 0.11 | 1.61 ± 0.068

Row | Sequence | protein stability index (doa10∆) | protein stability index (pdr5∆) | protein stability index (san1∆) | protein stability index (ubr1∆)
29 | AIIDKNTGLTFKKNLQV [PRE4] | 3.22 ± 0.081 | 2.79 ± 0.076 | 2.79 ± 0.11 | 3.35 ± 0.082
30 | IEQGIPKHSYLSGNPLT [SIR4] | 2.86 ± 0.07 | 2.88 ± 0.076 | 3.13 ± 0.17 | 2.96 ± 0.061
31 | AIVCYILFELYKIKGRN [SRP72] | 2.01 ± 0.056 | 2.13 ± 0.059 | 2.69 ± 0.059 | 2.15 ± 0.054
32 | LYAIKKVTLNKETQQYE [BRR2] | 3.03 ± 0.15 | 3.21 ± 0.13 | 2.99 ± 0.094 | 3.36 ± 0.081
33 | LPNKSTISKTVSSTIPR [FAS2] | 2.01 ± 0.072 | 2.63 ± 0.077 | 2.92 ± 0.11 | 2.94 ± 0.084
34 | RKHPGGRGMAGGQHHHR [RPL28] | 2.94 ± 0.14 | 2.6 ± 0.26 | 3.03 ± 0.1 | 3.18 ± 0.16
35 | MKTVQSPMGAQPSYNSA [GAL11] | 3.37 ± 0.26 | 2.91 ± 0.1 | 2.56 ± 0.21 | 2.65 ± 0.081
36 | FDVNTLCLMTWKEVMFD [CDC53] | 2.61 ± 0.096 | 2.59 ± 0.065 | 2.81 ± 0.11 | 2.85 ± 0.068
37 | GCLSVLYQSKGRYMEAL [SRP68] | 2.83 ± 0.13 | 3.04 ± 0.18 | 2.76 ± 0.21 | –
38 | GSAEFNVKYRAVVFKPF [RPB7] | 2.81 ± 0.14 | 1.85 ± 0.11 | 2.46 ± 0.1 | 2.85 ± 0.17
39 | LLSSESNIPTLIEKLQG [YDL116W/NUP84] | 2.42 ± 0.091 | 3.01 ± 0.11 | 2.6 ± 0.047 | 3.07 ± 0.072
40 | LGEIPNPMKKHKPNEGR [SIR4] | 2.58 ± 0.077 | 2.55 ± 0.086 | 2.8 ± 0.062 | 2.88 ± 0.04
41 | KEKVEEQEQQQQQIIKI [RPS20] | 3.16 ± 0.076 | 3.38 ± 0.11 | 3.19 ± 0.066 | 3.24 ± 0.091
42 | WQVIITDDQGRVIDDNN [SIR3] | 3.49 ± 0.11 | 3.43 ± 0.1 | 3.31 ± 0.08 | 3.52 ± 0.073
43 | HHYEECAERVKIQQQQP [QCR6] | 3.25 ± 0.12 | 3.04 ± 0.18 | 2.85 ± 0.11 | 3.13 ± 0.15
44 | LKHKSICSCVNRGVKLE [RPP1] | 2.31 ± 0.068 | 2.75 ± 0.051 | 2.57 ± 0.068 | 2.68 ± 0.034
45 | SGLMVILYTSKIVFILD [RRI2] | 1.76 ± 0.09 | 1.81 ± 0.049 | 1.44 ± 0.094 | 1.69 ± 0.037
46 | VEEIKLQKEKELHKEGT [SMC2] | – | 3.03 ± 0.12 | 2.81 ± 0.095 | 2.97 ± 0.096
47 | KVAKKRLGSFTRAKAKV [RPL36A] | – | 2.64 ± 0.21 | 3.1 ± 0.16 | 2.86 ± 0.29
48 | TTVKPLFQNVPEQGEEP [YAR002W/NUP60] | 3.08 ± 0.07 | 3.3 ± 0.06 | 3.32 ± 0.04 | 3.21 ± 0.052
49 | NRRLVYSRILKSMGRKC [YCG1] | 1.41 ± 0.12 | 1.17 ± 0.084 | 1.3 ± 0.2 | 1.14 ± 0.067
50 | DKDRDTRRKRRQGRSNR [SNF5] | 3.6 ± 0.23 | 3.48 ± 0.16 | 3.31 ± 0.096 | 3.55 ± 0.14
51 | DAISQVINIAKAHPNFP [FAS1] | 1.41 ± 0.076 | 2.65 ± 0.095 | 2.03 ± 0.26 | 2.91 ± 0.082
52 | SAILLSETDKRQFLHEL [RPO31] | 2.6 ± 0.069 | 2.49 ± 0.051 | 2.88 ± 0.087 | 2.63 ± 0.052
53 | MNAGGRNVTIQLENADT [RPN2] | – | 2.44 ± 0.18 | 1.62 ± 0.29 | –
54 | GKVVKNVLLLDSNGDFN [RRP46] | 3.35 ± 0.068 | 3.22 ± 0.058 | 3.29 ± 0.063 | 3.27 ± 0.043
55 | ADLESFANNHFLNSNAV [COR1] | 2.63 ± 0.11 | 2.87 ± 0.074 | 2.99 ± 0.056 | 2.71 ± 0.082
